The labels stand for the following.
B1: KAT8 regulatory NSL complex subunit 2, residues 28 to 91; numbered along this chain, Q9H9L4 (parent)
chain: CAFTHRPCSHPRLEGQEFCIKHILEDKNAPFKQCSYISTKNGKRCPNAAPKPEKKDGVSFCAEH

± gives the uncertainty stated by the source.

In this data set the parent is B1. As to the kind of experiment: abundance fitness (aPCA) (normalised: wild type 0, dead -1); higher = more abundant; growth selection in yeast, the domain comes from the species named. The settings on record: Homo sapiens.
Take CAFTHRPCSHPRLEGQEFCIKHKLEDKNAPFKQCSYISTKNGKRCPNAAPKPEKKDGVSFCAEH: the abundance fitness was -0.165 ± 0.085.

In the case of CAFTHRPCSHPRLEGQEFCIKHVLEDKNAPFKQCSYISTKNGKRCPNAAPKPEKKDGVSFCAEH, the abundance fitness was -0.124 ± 0.048.

Regarding CAFTHRPCSHPRLEGQEFCIKHHLEDKNAPFKQCSYISTKNGKRCPNAAPKPEKKDGVSFCAEH, the abundance fitness was -0.246 ± 0.1.

For CAFTHRPCSHPRLEGQEFCIKHQLEDKNAPFKQCSYISTKNGKRCPNAAPKPEKKDGVSFCAEH, the abundance fitness was -0.136 ± 0.085.

With CAFTHRPCSHPRLEGQEFCIKHGLEDKNAPFKQCSYISTKNGKRCPNAAPKPEKKDGVSFCAEH, the abundance fitness was -0.295 ± 0.047.

For CAFTHRPCSHPRLEGQEFCIKHFLEDKNAPFKQCSYISTKNGKRCPNAAPKPEKKDGVSFCAEH, the abundance fitness was -0.404 ± 0.15.

CAFTHRPCSHPRLEGQEFCIKHNLEDKNAPFKQCSYISTKNGKRCPNAAPKPEKKDGVSFCAEH: the abundance fitness is -0.463 ± 0.26.

For the variant CAFTHRPCSHPRLEGQEFCIKHMLEDKNAPFKQCSYISTKNGKRCPNAAPKPEKKDGVSFCAEH, the abundance fitness was -0.204 ± 0.065.

As to CAFTHRPCSHPRLEGQEFCIKHELEDKNAPFKQCSYISTKNGKRCPNAAPKPEKKDGVSFCAEH, the abundance fitness is -0.351 ± 0.1.

Regarding CAFTHRPCSHPRLEGQEFCIKHWLEDKNAPFKQCSYISTKNGKRCPNAAPKPEKKDGVSFCAEH, the abundance fitness is -0.286 ± 0.049.

As to CAFTHRPCSHPRLEGQEFCIKHSLEDKNAPFKQCSYISTKNGKRCPNAAPKPEKKDGVSFCAEH, the abundance fitness was -0.156 ± 0.06.

For CAFTHRPCSHPRLEGQEFCIKHALEDKNAPFKQCSYISTKNGKRCPNAAPKPEKKDGVSFCAEH, the abundance fitness was -0.078 ± 0.068.

As for CAFTHRPCSHPRLEGQEFCIKHDLEDKNAPFKQCSYISTKNGKRCPNAAPKPEKKDGVSFCAEH, the abundance fitness was -0.35 ± 0.15.

With CAFTHRPCSHPRLEGQEFCIKHPLEDKNAPFKQCSYISTKNGKRCPNAAPKPEKKDGVSFCAEH, the abundance fitness was -0.627 ± 0.062.

Regarding CAFTHRPCSHPRLEGQEFCIKHLLEDKNAPFKQCSYISTKNGKRCPNAAPKPEKKDGVSFCAEH, the abundance fitness is -0.143 ± 0.042.

With CAFTHRPCSHPRLEGQEFCIKHCLEDKNAPFKQCSYISTKNGKRCPNAAPKPEKKDGVSFCAEH, the abundance fitness is -0.154 ± 0.069.

On to CAFTHRPCSHPRLEGQEFCIKHTLEDKNAPFKQCSYISTKNGKRCPNAAPKPEKKDGVSFCAEH, for which the abundance fitness is -0.178 ± 0.078.

Regarding CAFTHRPCSHPRLEGQEFCIKHYLEDKNAPFKQCSYISTKNGKRCPNAAPKPEKKDGVSFCAEH, the abundance fitness is -0.296 ± 0.15.

On to CAFTHRPCSHPRLEGQEFCIKHIAEDKNAPFKQCSYISTKNGKRCPNAAPKPEKKDGVSFCAEH, for which the abundance fitness is -0.144 ± 0.07.

On to CAFTHRPCSHPRLEGQEFCIKHIPEDKNAPFKQCSYISTKNGKRCPNAAPKPEKKDGVSFCAEH, for which the abundance fitness was -0.134 ± 0.1.

As to CAFTHRPCSHPRLEGQEFCIKHIHEDKNAPFKQCSYISTKNGKRCPNAAPKPEKKDGVSFCAEH, the abundance fitness is -0.227 ± 0.1.

Take CAFTHRPCSHPRLEGQEFCIKHIFEDKNAPFKQCSYISTKNGKRCPNAAPKPEKKDGVSFCAEH: the abundance fitness is -0.195 ± 0.088.

Regarding CAFTHRPCSHPRLEGQEFCIKHIGEDKNAPFKQCSYISTKNGKRCPNAAPKPEKKDGVSFCAEH, the abundance fitness was -0.098 ± 0.047.

As to CAFTHRPCSHPRLEGQEFCIKHIKEDKNAPFKQCSYISTKNGKRCPNAAPKPEKKDGVSFCAEH, the abundance fitness was -0.261 ± 0.079.

CAFTHRPCSHPRLEGQEFCIKHIYEDKNAPFKQCSYISTKNGKRCPNAAPKPEKKDGVSFCAEH: the abundance fitness is -0.168 ± 0.085.

On to CAFTHRPCSHPRLEGQEFCIKHICEDKNAPFKQCSYISTKNGKRCPNAAPKPEKKDGVSFCAEH, for which the abundance fitness was -0.129 ± 0.091.

As for CAFTHRPCSHPRLEGQEFCIKHIDEDKNAPFKQCSYISTKNGKRCPNAAPKPEKKDGVSFCAEH, the abundance fitness is -0.13 ± 0.071.

Take CAFTHRPCSHPRLEGQEFCIKHIQEDKNAPFKQCSYISTKNGKRCPNAAPKPEKKDGVSFCAEH: the abundance fitness is -0.147 ± 0.067.

Take CAFTHRPCSHPRLEGQEFCIKHISEDKNAPFKQCSYISTKNGKRCPNAAPKPEKKDGVSFCAEH: the abundance fitness is -0.12 ± 0.055.

As to CAFTHRPCSHPRLEGQEFCIKHIREDKNAPFKQCSYISTKNGKRCPNAAPKPEKKDGVSFCAEH, the abundance fitness is -0.164 ± 0.054.

Turning to CAFTHRPCSHPRLEGQEFCIKHINEDKNAPFKQCSYISTKNGKRCPNAAPKPEKKDGVSFCAEH, the abundance fitness was -0.348 ± 0.084.

As for CAFTHRPCSHPRLEGQEFCIKHIEEDKNAPFKQCSYISTKNGKRCPNAAPKPEKKDGVSFCAEH, the abundance fitness is -0.234 ± 0.075.

As to CAFTHRPCSHPRLEGQEFCIKHIMEDKNAPFKQCSYISTKNGKRCPNAAPKPEKKDGVSFCAEH, the abundance fitness was -0.093 ± 0.067.

As for CAFTHRPCSHPRLEGQEFCIKHIIEDKNAPFKQCSYISTKNGKRCPNAAPKPEKKDGVSFCAEH, the abundance fitness was -0.2 ± 0.078.

On to CAFTHRPCSHPRLEGQEFCIKRILEDKNAPFKQCSYISTKNGKRCPNAAPKPEKKDGVSFCAEH, for which the abundance fitness was -0.812 ± 0.053.

CAFTHRPCSHPRLEGQEFCIKWILEDKNAPFKQCSYISTKNGKRCPNAAPKPEKKDGVSFCAEH: the abundance fitness was -1.4 ± 0.2.

As to CAFTHRPCSHPRLEGQEFCIKTILEDKNAPFKQCSYISTKNGKRCPNAAPKPEKKDGVSFCAEH, the abundance fitness is -0.877 ± 0.086.

In the case of CAFTHRPCSHPRLEGQEFCIKNILEDKNAPFKQCSYISTKNGKRCPNAAPKPEKKDGVSFCAEH, the abundance fitness is -0.768 ± 0.12.

Turning to CAFTHRPCSHPRLEGQEFCIKIILEDKNAPFKQCSYISTKNGKRCPNAAPKPEKKDGVSFCAEH, the abundance fitness was -1.41 ± 0.15.

For the variant CAFTHRPCSHPRLEGQEFCIKAILEDKNAPFKQCSYISTKNGKRCPNAAPKPEKKDGVSFCAEH, the abundance fitness was -0.769 ± 0.053.

On to CAFTHRPCSHPRLEGQEFCIKMILEDKNAPFKQCSYISTKNGKRCPNAAPKPEKKDGVSFCAEH, for which the abundance fitness is -1.16 ± 0.1.

Consider CAFTHRPCSHPRLEGQEFCIKQILEDKNAPFKQCSYISTKNGKRCPNAAPKPEKKDGVSFCAEH, for which the abundance fitness is -0.506 ± 0.12.
